2 molecules from publication PMC8591511, “Flexible open conformation of the AP-3 complex explains its role in cargo recruitment at the Golgi” (The Journal of Biological Chemistry, 2021) can be followed below.

Test [1] has as its target T1, GFP-tagged AP-3 complex (Apl6 tagged C-terminally with mGFP) (S. cerevisiae, UniProt Q08951 1-932; P46682 1-809; P38153 1-483; P47064 1-194).
T1 construct: Apl5, δ-subunit of the yeast AP-3 complex; Apl6, β3-subunit of the yeast AP-3 complex; Apm3, μ3-subunit of the yeast AP-3 complex; Aps3, σ-subunit of the yeast AP-3 complex; also called GFP-AP-3; source: yeast strain with Apl6 fused to GFP, purified; labelled via anti-GFP nanobody carrying DY647 or Alexa Fluor 568; not shown: mGFP, C-terminal, kept; copies: + + +
Kind of test: single-molecule TIRF microscopy on polymer-supported membranes; polymer-supported membranes (Golgi mixture with 1 mol% PI4P) with or without Arf1 (10 nM), Sec7ΔC (10 nM) and 400 μM GTPγS, or reconstituted Vam3; GFP-tagged AP-3 (2 nM) labelled with anti-GFP nanobody-Dy647; room temperature; monitored 45 min. The following applies: both partners purified.

The target of test [2] is T1, GFP-tagged AP-3 complex (Apl6 tagged …). Kind of test: single-molecule tracking of cargo mobility (TIRF microscopy); labelled Vam3 in polymer-supported membranes tracked before and after the addition of AP-3; without Arf1 and Sec7. The following applies: both partners purified.

T1 sequence (Q08951 whole entry, chain 1 of 4, the tested form may be a part): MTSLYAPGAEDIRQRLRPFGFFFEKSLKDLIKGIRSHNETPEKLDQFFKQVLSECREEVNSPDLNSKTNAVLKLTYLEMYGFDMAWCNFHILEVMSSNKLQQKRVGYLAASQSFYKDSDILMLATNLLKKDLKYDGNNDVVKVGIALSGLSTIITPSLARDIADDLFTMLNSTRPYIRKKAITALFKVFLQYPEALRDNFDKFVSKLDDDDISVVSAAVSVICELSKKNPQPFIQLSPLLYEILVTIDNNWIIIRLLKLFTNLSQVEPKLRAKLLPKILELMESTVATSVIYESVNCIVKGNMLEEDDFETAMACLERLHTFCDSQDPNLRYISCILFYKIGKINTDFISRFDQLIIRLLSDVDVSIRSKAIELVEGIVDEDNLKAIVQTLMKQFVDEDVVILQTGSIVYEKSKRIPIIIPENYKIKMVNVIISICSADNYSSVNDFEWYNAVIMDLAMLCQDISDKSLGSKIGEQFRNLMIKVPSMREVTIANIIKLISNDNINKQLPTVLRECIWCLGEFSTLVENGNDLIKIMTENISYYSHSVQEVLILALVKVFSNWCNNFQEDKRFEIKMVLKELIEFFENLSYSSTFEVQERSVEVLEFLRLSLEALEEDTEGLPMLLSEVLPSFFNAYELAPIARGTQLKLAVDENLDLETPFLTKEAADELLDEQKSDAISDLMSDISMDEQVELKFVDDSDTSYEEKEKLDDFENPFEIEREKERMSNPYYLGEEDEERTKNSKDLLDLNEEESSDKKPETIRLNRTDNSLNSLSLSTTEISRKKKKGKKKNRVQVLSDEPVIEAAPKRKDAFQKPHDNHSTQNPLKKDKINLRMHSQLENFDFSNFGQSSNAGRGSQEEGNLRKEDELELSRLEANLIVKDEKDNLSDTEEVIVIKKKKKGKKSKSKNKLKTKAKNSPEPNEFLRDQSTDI
T1 sequence (P46682 whole entry, chain 2 of 4, the tested form may be a part): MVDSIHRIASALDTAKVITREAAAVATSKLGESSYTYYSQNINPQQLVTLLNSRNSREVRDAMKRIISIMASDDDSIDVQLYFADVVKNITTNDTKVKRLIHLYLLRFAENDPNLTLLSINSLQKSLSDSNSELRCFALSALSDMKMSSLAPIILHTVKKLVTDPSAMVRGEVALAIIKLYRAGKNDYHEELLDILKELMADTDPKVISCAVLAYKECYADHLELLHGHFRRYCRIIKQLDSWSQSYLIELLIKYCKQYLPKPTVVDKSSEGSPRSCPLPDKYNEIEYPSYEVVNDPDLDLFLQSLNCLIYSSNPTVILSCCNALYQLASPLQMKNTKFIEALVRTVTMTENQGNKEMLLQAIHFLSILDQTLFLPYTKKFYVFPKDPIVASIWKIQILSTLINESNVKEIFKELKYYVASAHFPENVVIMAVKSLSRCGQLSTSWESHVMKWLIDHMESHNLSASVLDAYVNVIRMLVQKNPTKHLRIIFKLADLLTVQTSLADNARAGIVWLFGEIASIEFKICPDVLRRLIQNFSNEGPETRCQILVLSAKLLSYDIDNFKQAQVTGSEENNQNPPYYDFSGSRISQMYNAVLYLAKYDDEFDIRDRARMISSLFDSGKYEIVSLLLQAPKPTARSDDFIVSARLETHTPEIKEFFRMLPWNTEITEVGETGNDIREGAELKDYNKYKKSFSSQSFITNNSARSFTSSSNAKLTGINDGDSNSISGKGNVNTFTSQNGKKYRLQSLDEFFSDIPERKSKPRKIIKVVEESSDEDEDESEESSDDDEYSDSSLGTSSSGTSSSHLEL
T1 sequence (P38153 whole entry, chain 3 of 4, the tested form may be a part): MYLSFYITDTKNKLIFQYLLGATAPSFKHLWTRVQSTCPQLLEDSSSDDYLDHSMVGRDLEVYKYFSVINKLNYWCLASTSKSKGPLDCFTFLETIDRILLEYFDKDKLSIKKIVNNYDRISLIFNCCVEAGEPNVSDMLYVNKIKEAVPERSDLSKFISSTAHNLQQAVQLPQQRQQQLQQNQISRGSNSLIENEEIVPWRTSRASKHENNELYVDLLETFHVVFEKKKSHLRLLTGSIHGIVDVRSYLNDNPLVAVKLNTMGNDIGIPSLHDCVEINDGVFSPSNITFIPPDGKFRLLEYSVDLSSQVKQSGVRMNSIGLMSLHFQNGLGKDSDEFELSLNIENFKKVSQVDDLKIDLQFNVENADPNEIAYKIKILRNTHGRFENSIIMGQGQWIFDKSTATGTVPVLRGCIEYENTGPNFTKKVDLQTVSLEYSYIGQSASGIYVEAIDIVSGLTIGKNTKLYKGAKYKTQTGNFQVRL
T1 sequence (P47064 whole entry, chain 4 of 4, the tested form may be a part): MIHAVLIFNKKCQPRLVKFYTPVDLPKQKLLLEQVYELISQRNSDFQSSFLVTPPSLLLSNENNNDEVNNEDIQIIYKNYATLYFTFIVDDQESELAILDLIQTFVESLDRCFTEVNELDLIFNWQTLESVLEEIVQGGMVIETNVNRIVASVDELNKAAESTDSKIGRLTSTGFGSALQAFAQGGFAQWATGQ

B1: Vam3 (yeast vacuolar SNARE, AP-3 cargo with dileucine motif) (natural protein, UniProt Q12241 1-283, looked up)
chain: MSFFDIEAQSSKGNSQQEPQFSTNQKTKELSNLIETFAEQSRVLEKECTKIGSKRDSKELRYKIETELIPNCTSVRDKIESNILIHQNGKLSADFKNLKTKYQSLQQSYNQRKSLFPLKTPISPGTSKERKDIHPRTEAVRQDPESSYISIKVNEQSPLLHNEGQHQLQLQEEQEQQQQGLSQEELDFQTIIHQERSQQIGRIHTAVQEVNAIFHQLGSLVKEQGEQVTTIDENISHLHDNMQNANKQLTRADQHQRDRNKCGKVTLIIIIVVCMVVLLAVLS
notes: Vam3, yeast SNARE; transmembrane domain aa 263–283; source: reconstituted into proteoliposomes or polymer-supported membranes
Consider B1, for which the binding result in test [1] is given as “binds”.

B2: Vam3 labelled with Atto 647N (natural protein, yeast, UniProt Q12241 1-283, looked up)
chain: B1 chain
modifications: Atto 647N (Maleimide)
notes: Vam3, yeast SNARE; also called prelabeled transmembrane cargo; source: reconstituted into polymer-supported membranes
With B2, in test [2], the binding result is on record as “binds”.
